Substitutions are numbered along the chain they refer to.
B1: RSVNC41 (VHH)
VHH: EVQLVESGGGLVQAGGSLSISCAASGGSLSNYVLGWFRQAPGKEREFVAAINWRGDITIGPPNVEGRFTISRDNAKNTGYLQMNSLAPDDTAVYYCGAGTPLNPGAYIYDWSYDYWGRGTQVTVSS
B2: LG191D3 (VHH)
VHH: EVQLVESGGGLVQAGGSLRLSCEASGRTYSRYGMGWFRQAPGKEREFVAAVSRLSGPRTVYADSVKGRFTISRDNAENTVYLQMNSLKPEDTAVYTCAAELTNRNSGAYYYAWAYDYWGQGTQVTVSS
B3: RSVNC23 (VHH)
VHH: EVQLVESGGGLVQPGGSLRLSCAASGRTFSSIAMGWFRQAPGKEREFVAAISWSRGRTFYADSVKGRFIISRDDAANTAYLQMNSLKPEDTAVYYCAVDTASWNSGSFIYDWAYDHWGQGTQVTVSS
B4: 1E4 (VHH)
VHH: B2 VHH with Y29F, R31S, S106P, A112T
B5: NC41v06 (VHH)
VHH: EVQLLESGGGLVQPGGSLRLSCAASGGSLSNYVLGWFRQAPGKGREFVAAINWRDDITIGPPNVEGRFTISRDNAKNTLYLQMNSLRPEDTAVYYCGAGTPLNPGAYIYDWSYDYWGQGTLVTVSS
B6: NC41v17 (VHH)
VHH: B5 VHH with D55G, A75S
B7: NC41 (VHH)
VHH: B1 VHH
B8: IV144 (VHH)
VHH: QVQLQQSGGGLVQAGGSLRLSCAASGNIISFNPMGWHRQAPGKQRELVASITSGGSISYVDSVKGRFTISRDSAKNTIYLQMNSLKPEDTAVYFCAGEGPRRRGSTWYTDTYWGQGTQVTVSS
notes: yeast-produced
B9: IV25 (VHH)
VHH: QVQLQQSGGGLVQSGGSLSLSCAASGITLNNRVVGWFRQAPGKEREFVGRIMWSVGDTFYARSVKGRFTISRDNAKNTMYLQMNALKPEDTAVYYCAAARDPDLYTGQYEYWGQGTQVTVSS
notes: yeast-produced
B10: IV133 (VHH)
VHH: QVQLQQSGGGLVQPGGSLRLSCAASSSGFSFNPMGWYRQAPGKQRELVATMTSGGTTNYADSVKGRFTISRDNAKTTVYLQMNSLKPEDTAVYYCNARGPRRATTGWITDDYWGQGTQVTVSS
notes: yeast-produced
B11: IV157 (VHH)
VHH: B10 VHH with S26R, G28D, F29I, M51I, T52S, S53N, R71Q, A97G, R102Y, I108Y
notes: yeast-produced
B12: IV156 (VHH)
VHH: B10 VHH with S26R, M51I, R71T, Y79F, A97G, A103G, T105A, I108F
notes: yeast-produced
B13: IV131 (VHH)
VHH: QVQLQQSGGGLVQAGGSLRLSCAASGSGFSFNPMGWYRQAPGKQRELVASITSGGTTNYVDSVKGRFTISRGNAKNTVYLQMNSLKPEDTAVYYCAAEGPRRRGSTWYTDNYWGQGTQVTVSS
notes: yeast-produced
B14: PMP1B2 (VHH)
VHH: EVQLVESGGGLVQAGGSLRLSCAASGPTFSADTMGWFRQAPGKEREFVATIPWSGGIAYYSDSVKGRFTMSRDNAKNTVDLQMNSLKPEDTALYYCAGSSRIYIYSDSLSERSYDYWGQGTQVTVSS
B15: PMP1A2 (VHH)
VHH: EVQLVESGGGLVQAGGSLRLSCAASERTFSYYAMGWFRQAPGKEREFVATISRSGEWIYYKDAMKGRFTISRDNANNAVYLQMNSLQPEDTAIYYCAADSLGGFRSASDYYNTNTYAYWGQGTQVTVSS
B16: PMP1G8 (VHH)
VHH: EVQLVESGGGSVQAGGSLRLSCAASGGSFNRFGMGWFRRAPGKERDFVAAINLSGDTTYYVDSVQGRFTISRDNANNIMYLQMNLLKPEDTADYYCAADPDPITAWKQSGAGMDYWGKGTQVTVSS
B17: PMP20C1 (VHH)
VHH: EVQLVESGGGLVQAGGSLRLSCAASGRTFSSFAMGWFRQAPGKEREFVAAISWSGGSTYYADSVKGRFTISGDNAKNTMYLQMNSLKPEDTAVYYCAADSEILNSGAYYYPWAYVYWGQGTQVTVSS
B18: PMP1E5 (VHH)
VHH: EVQLVESGGGLVQAGGSLRLSCEASGRTFSPIAMGWFRQAPGKEREFVAVVTRWSGARTVYADSVKGRFTISRDNAENTVYLQMNSLKPEDTAVYTCAADSTNRNSGAIYYTWAYDYWGQGTQVTVSS
B19: PMP1G3 (VHH)
VHH: B2 VHH
B20: PMP20B2 (VHH)
VHH: B18 VHH with P31S, I32Y, A33D, V50A, T59G, Y81H, I109V
B21: PMP7B2 (VHH)
VHH: EVQLVESGGGLVQAGDSLRLSCAASGRTFSSYAMGWFRQAPGKEREFVAAISWSDGSTYYADSVKGRFTISRDNAKNTVYLQMNSLKPEDTAVYYCAADLTSTNPGSYIYIWAYDYWGQGTQVTVSS
B22: PMP1A6 (VHH)
VHH: EVQLVESGGGLVQAGGSLRLSCAASGRTFSSYAMGWFRQAPGKEREFVAAIWWSGGSTYYADSVKGRFTMSRDNAKNTVYLEMNNLKPEDTAVYYCAADTDSSNSGSYLYTWAYDYWGQGTQVTVSS
B23: PMP19C4 (VHH)
VHH: EVQLVESGGGLVQAGGSLRLSCAASGRSFSNYVLGWFRQAPGKEREFVAAISFRGDSAIGAPSVEGRFTISRDNAKNTGYLQMNSLVPDDTAVYYCGAGTPLNPGAYIYDWSYDYWGRGTQVTVSS

These binders were tested against T1, FTM-NN protein (membrane anchorless form of the Long fusion protein, 70 kDa) (human respiratory syncytial virus, …, UniProt P12568 26-524) (assay: SPR (Biacore), FTM-NN immobilised).
T1 construct: domain: membrane anchorless form of the fusion protein

Row | Binder | Kd [nM] | koff [s⁻¹] | kon [M⁻¹ s⁻¹]
1 | B1 | 8.1 | 0.0067 | 820000
2 | B2 | 1.9 | 0.0028 | 1.5e+06
3 | B3 | 0.92 | 0.00074 | 800000

Each binder was assayed against hRSV (inactivated hRSV strain Long, Hytest #8RSV79), F protein on virus particles (human respiratory syncytial virus, …, UniProt P12568 26-574) (assay: binding ELISA on coated hRSV (Hytest), anti-VHH detection).

Row | Binder | EC50 [nM]
4 | B1 | 0.41
5 | B2 | 0.15
6 | B3 | 0.1

Each binder was assayed against F protein of RSV Long (RSV LONG M-2) (human respiratory syncytial virus, …, UniProt P12568 26-574) (assay: cell-based or functional assay).

Row | Binder | RSV neutralization IC50 (nM) (n = 2), Long
7 | B2 | 253
8 | B4 | 380
9 | B3 | 144

What follows are binders tested against F protein of RSV A-2 (human respiratory syncytial virus, …, UniProt P03420 26-574) (assay: cell-based or functional assay).

Row | Binder | RSV neutralization IC50 (nM) (n = 2), A-2
10 | B2 | 227
11 | B4 | 298
12 | B3 | 109

These binders were tested against T2, FTM-NN (membrane anchorless form of the Long fusion protein, 70 kDa) (human respiratory syncytial virus, …, UniProt P12568 26-524) (assay: SPR (Biacore), Ftm-NN protein immobilized on chip, Nanobody as analyte).
T2 construct: domain: membrane anchorless form of the fusion protein

Row | Binder | Kd [nM] | koff [s⁻¹] | kon [M⁻¹ s⁻¹]
13 | B5 | 2.5 | 0.0048 | 2e+06
14 | B6 | 3.2 | 0.0059 | 1.9e+06
15 | B7 | 4 | 0.0067 | 1.7e+06

Each binder was assayed against authentic influenza antigen of A/PR/8/34 (ATCC VR-1469), H1N1 (influenza A virus A/PR/8/34 (H1N1), UniProt P03452 18-565) (assay: ELISA on coated authentic influenza antigen).

Row | Binder | binding result
16 | B8 | no binding (tested: 10 µg/ml)
17 | B9 | no binding (tested: 10 µg/ml)
18 | B10 | no binding (tested: 10 µg/ml)
19 | B11 | no binding (tested: 10 µg/ml)
20 | B12 | no binding (tested: 10 µg/ml)
21 | B13 | no binding (tested: 10 µg/ml)

Each binder was assayed against T1, FTM-NN protein (membrane anchorless …) (assay: competition ELISA on coated FTM-NN; competitor biotinylated Synagis Fab).

Row | Binder | EC50 [nM]
22 | B1 | 32
23 | B2 | 5.9
24 | B3 | 2.3

The binders below were run against T3, FTM-NN protein (membrane anchorless form of the Long fusion protein of hRSV, 70 kDa) (human respiratory syncytial virus, …, UniProt P12568 26-524) (assay: ELISA, periplasmic extract on immobilised F protein; signal as fold over blank).

Row | Binder | Binding RSV-A, Fold blanc [fold over blank]
25 | B14 | 3.8
26 | B15 | 4

These binders were tested against T3, FTM-NN protein (membrane anchorless …) (assay: competition ELISA, periplasmic extract diluted 1:1000, competitor 101F Fab).

Row | Binder | % Inhibition 101F Fab (1:1000 PE) [%]
27 | B14 | 25
28 | B15 | 5

What follows are binders tested against FTM-NN protein (membrane anchorless form of the Long fusion protein, 70 kDa) (human respiratory syncytial virus, …, UniProt P12568 26-524) (assay: binding ELISA, periplasmic extract on immobilised antigen).

Row | Binder | Binding RSV-A, Fold blanc [fold over blank]
29 | B16 | 3.7
30 | B17 | 2.7
31 | B18 | 3.4
32 | B19 | 3.4
33 | B20 | 3
34 | B21 | 4.7
35 | B22 | 4.2
36 | B23 | 2.5

Each binder was assayed against T3, FTM-NN protein (membrane anchorless …) (assay: competition ELISA, periplasmic extract diluted 1:300, competitor 101F Fab).

Row | Binder | % Inhibition 101F Fab (1:300 PE) [%]
37 | B14 | 58
38 | B15 | 27

What follows are binders tested against T3, FTM-NN protein (membrane anchorless …) (assay: competition ELISA, periplasmic extract diluted 1:100, competitor 101F Fab).

Row | Binder | % Inhibition 101F Fab (1:100 PE) [%]
39 | B14 | 82
40 | B15 | 82

— patent publication US20200123233A1 (published 2020)
